Experiment [1] deals with T1, human CD3e/d (human, UniProt P07766 23-126; P04234 22-105).
T1 construct: Bought soluble protein; also called hCD3e/d; human CD3/ed (Sino CT038-H2508H)
The experiment is described as follows: SPR (Carterra LSA), mAb on chip. An outline of the steps: (§1)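 Purified mAbs amine-coupled (EDC/S-NHS) at 10 μg/mL in 10 mM NaOAc pH 4.25 onto an HC-30M chip, with benchmark and negative-control mAbs; analyte flowed over the array. Double-referenced sensorgrams fitted globally to a 1:1 Langmuir model for ka, kd and KD.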

Experiment [2] deals with T2, human CD3e/g (human, UniProt P07766 23-126; P09693 23-116).
T2 construct: Bought soluble protein; also called hCD3e/g; human CD3e/g (Acro CDD-C52W4)
The experiment is described as follows: SPR (Carterra LSA), mAb on chip. In short, it runs like this:
as §1

T2 sequence (P07766 23-126, chain 1 of 2): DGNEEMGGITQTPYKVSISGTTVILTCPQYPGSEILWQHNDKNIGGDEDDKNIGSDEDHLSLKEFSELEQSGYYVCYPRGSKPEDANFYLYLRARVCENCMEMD
T2 sequence (P09693 23-116, chain 2 of 2): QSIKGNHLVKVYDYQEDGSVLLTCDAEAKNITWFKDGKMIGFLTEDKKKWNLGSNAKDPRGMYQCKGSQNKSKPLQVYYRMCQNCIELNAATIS
T1 sequence (P07766 23-126, chain 1 of 2): as the sequence (P07766 23-126, chain 1 of 2) above
T1 sequence (P04234 22-105, chain 2 of 2): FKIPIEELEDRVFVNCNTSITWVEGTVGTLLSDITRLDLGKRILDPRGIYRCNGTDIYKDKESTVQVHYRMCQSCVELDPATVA

B1: mAb 188 (antibody, V domains shown)
VH: QVQLVESGGGVVQPGRSLRLSCAASGFTFSGYGMHWVRQAPGKGLEWVAIIYYNGKKEYYADSVKGRFTISRDNSKNTLYLQMNSLRAEDTAVYYCTRGEGYNWFDPWGQGTLVTVSS
VL: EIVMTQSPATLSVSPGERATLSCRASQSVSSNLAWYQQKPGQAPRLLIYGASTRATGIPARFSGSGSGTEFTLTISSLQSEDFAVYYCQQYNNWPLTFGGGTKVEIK
notes: VH and VL only
For the molecule B1, the Kd in experiment [1] was 36 nM; in experiment [2], 17 nM.

B2: mAb 209 (antibody, V domains shown)
VH: QVQLVESGGGVVQPGRSLRLSCAASGFTFSGYGMHWVRQAPGKGLEWVAIIYYNGKKEYYADSVKGRFTVSRDNSKNMLYLQMNSLRAEDTAVYYCTRGEGYNWFDPWGQGTLVTVSS
VL: EIVMTQSPATLSVSPGERATLSCRASQTVSSNLAWYQQKPGQAPRLLIYGASTRATGIPARFSGSGSGTEFTLTISSLQSEDFAVYYCKQYNNRPLTFGGGTKVEIK
notes: VH and VL only
For the molecule B2, the Kd in experiment [1] was 5.5 nM; in experiment [2] it was 5.7 nM.

B3: mAb 205 (antibody, V domains shown)
VH: QVQLVESGGGVVQPGKSLRLSCAASGFTFSGYGMHWVRQAPGKGLEWVAIIYYNGKKEYYADSVKGRFTISRDNSKNTLYLQMNSLRAEDTAVYYCTRGEGYNWFDPWGQGTLVTVSS
VL: EIVMTQSPATLSVSPGERATLSCRASQSVSSNLAWYQQKPGQAPRLLIYGASTRATGIPARFSGSGSGTEFTLTISSLQSEDFAVYYCKQYNNWPLTFGGGTKVEIK
notes: VH and VL only
As to B3, the Kd in experiment [1] is 13 nM; in experiment [2], 8.4 nM.

B4: mAb 198 (antibody, V domains shown)
VH: QVQLVESGGGVVQPGGSLRLSCAASGFTFSGYGMHWVRQAPGKGLEWVAIIWYNGRKTYYAESVKGRFTISRDNSKNTLSLQMNSLRIEDTAVYYCTTGQGYNWFDPWGQGTLVTVSS
VL: EIVMTQSPATLSVSPGERATLSCRASQSVSSNLAWYQQKPGQAPRLLIYGASTRATGIPARFSGSGSGTEFTLTISSLQSEDFAVYYCQQFNAWPLTFGGGTKMEIK
notes: VH and VL only
Take B4: the figures for the Kd in experiment [1] and in experiment [2] were 41 nM and 30 nM, respectively.

B5: mAb 203 (antibody, V domains shown)
VH: QVQLVESGGGVVQPGGSLRLSCAASGFTFRGYGMHWVRQAPGKGLEWVAIIYYNGRKTYYAESVKGRFTISRDNSKNTLSLQMNSLRVEDTAVYYCTAGQGYNWFDPWGQGTLVTVSS
VL: EIVMTQSPATLSVSPGERATLSCRASQSVSSNLAWYQQKPGQAPRLLIYGASTRATGIPARFSGSGSGTEFTLTISSLQSEDFAVYYCQQFNAWPLTFGGGTKMEIK
notes: VH and VL only
On to B5, for which the figures for the Kd in experiment [1] and in experiment [2] were 17 nM and 9.5 nM, respectively.

B6: mAb 197 (antibody, V domains shown)
VH: QVQLVESGGGVVQPGGSLRLSCAASGFTFSGYGMHWVRQAPGKGLEWVAIIWYNGRKTYYAESVKGRFTISRDNSKNTLSLQMNSLRVEDTAVYYCTTGQGYNWFDPWGQGTLVTVSS
VL: EIVMTQSPATLSVSPGERATLSCRASQSVSSNLAWYQQKPGQAPRLLIYGASTRATGIPARFSGSGSGTEFTLTISSLQSEDFAVYYCQQFNAWPLTFGGGTKMEIK
notes: VH and VL only
Consider B6, for which the results for the Kd in experiment [1] and in experiment [2] were 49 nM and 17 nM, respectively.

B7: mAb 204 (antibody, V domains shown)
VH: QVQLVESGGGVVQSGRSLRLSCAASGFTFSGYGMHWVRQAPGKGLEWVAIVYYDGKNKYYADSVKGRFTISRDNSKNTLYLQMNSLRAEDTAVYYCVRGEGYNWFDPWGQGTLVTVSS
VL: EIVMTQSPATLSVSPGERATLSCRASQSVSSNLAWYQQKPGQVPRLLIYGASTRATGIPARFSGSGSGTQFTLTISSLQSEDFAVYYCQQYNNWPLTFGGGTKVEIK
notes: VH and VL only
On to B7, for which the Kd is 200 nM in experiment [1] and 90 nM in experiment [2].

B8: mAb 201 (antibody, V domains shown)
VH: QVQLVESGGGVVQPGRSLRLSCAASGFTFSGYGMHWVRQAPGKGLEWVAIIYYNGKKEYYADSVKGRFTISRDNSKNTLYLQMNSLRAEDTAVYYCTRGEGYNWFDPWGQGTLVTVSS
VL: EIVMTQSPATLSVSPGERATLSCRASQSVSSSLAWYQQKPGQAPRLLIYGASTRATGIPARFSGSGSGTEFTLTISSLQSEDFAVYYCQQYNNWPLTFGGGTKVEIK
notes: VH and VL only
In the case of B8, the figures for the Kd in experiment [1] and in experiment [2] were 28 nM and 13 nM, respectively.

B9: mAb 192 (antibody, V domains shown)
VH: QVQLVESGGGVVQPGRSLRLSCAASGFTFSGYGMHWVRQAPGKGLEWVAIIYYNGKKEYYADSVKGRFTISRDNSKNTLYLQMNSLRAEDTAVYYCTRGEGYNWFDPWGQGILVTVSS
VL: EIVMTQSPATLSVSPGERATLSCRASQSVSSNLAWYQQKPGQAPRLLIYGASTRATGIPARFSGSGSGTEFTLTISSLQSEDFAVYYCKQYKNWPLTFGGGTKVEIK
notes: VH and VL only
On to B9, for which the Kd worked out at 9.2 nM in experiment [1] and 9.3 nM in experiment [2].

B10: mAb 191 (antibody, V domains shown)
VH: QVQLVESGGGVVQPGRSLRLSCAASGFTFSGYGMHWVRQAPGKGLEWVAIIYYNGKKEYYADSVKGRFTISRDNSKNTLYLQMNSLRAEDTAVYYCTRGEGYNWFDPWGQGTLVTVSS
VL: EIVMTQSPATLSVSPGERATLSCRASQSVSSNLAWYQQKPGQAPRLLIYGASTRATGIPARFSGSGSGTDFTLTISSLQSEHFAVYYCQQYTNWPLTFGGGTKVEIK
notes: VH and VL only
For B10, the Kd is 28 nM in experiment [1] and 15 nM in experiment [2].

B11: mAb 216 (antibody, V domains shown)
VH: QVQLVESGGGVVQPGRSLRLSCAASGFTFSGYGMHWVRQAPGKGLEWVAIIYYNGKKEYYADSVKGRFTISRDNSKNTLYLQMNSLRAEDTAVYYCTRGEGYNWFDPWGQGTLVTVSS
VL: EIVMTQSPATLSVSPGERATLSCRASQSVSSNLAWYQQKPGQAPRLLIYGASTRATGIPARFSGSGSGTEFTLTISSLQSEDFAVYYCKQYKNWPLTFGGGTKVEIK
notes: VH and VL only
Regarding B11, the Kd in experiment [1] stood at 9.3 nM; in experiment [2], 6.8 nM.

B12: mAb 199 (antibody, V domains shown)
VH: QVQLVESGGGVVQPGRSLRLSCAASGFTFSGYGMHWVRQAPGKGLEWVAIIYYNGKKEYYADSVKGRFTIFRDNSKNTLYLHMNSLRAEDTAVYYCTRGEGYNWFDPWGQGTLVTVSS
VL: EIVMTQSPATLSVSPGERATLSCRASQSVSRNLAWYQQKPGQAPRLLIYGASTRATGIPARFSGSGSGTEFTLTISSLQSEDFAVYYCQQYNNWPLTFGGGTKVEIK
notes: VH and VL only
Take B12: the dissociation constant Kd in experiment [1] was 26 nM; in experiment [2], 29 nM.

B13: mAb 189 (antibody, V domains shown)
VH: QVQLVESGGGVVQPGRSLRLSCAASGFTFSGYGMHWVRQAPGKGLEWVAIIYYDGKNKYYADSVKGRFTISRDNSKSTLYLQMNSLGADDTAVYYCTRGKGYNWFDPWGQGTLVTVSS
VL: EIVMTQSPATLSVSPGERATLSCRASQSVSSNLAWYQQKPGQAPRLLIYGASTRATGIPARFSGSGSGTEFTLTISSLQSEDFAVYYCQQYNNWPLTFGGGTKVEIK
notes: VH and VL only
Take B13: the dissociation constant Kd came out at 110 nM in experiment [1] and 60 nM in experiment [2].

B14: mAb 52 (antibody, V domains shown)
VH: QVQLVQSGAEVKKPGASVKVSCKASGYTFTSHDINWVRQATGQGLEWMGWLNPNSGKTGYAQKFQGRVTMARDTSMYTADMELSSLRFEDTAVYYCARVGHYDMWPGFFSFDYWGQGTLVTVSS
VL: DIQMTQSPSSLSASVGDRIIITCRASQDIRNDLGWYQQKPGKAPKRLIYAASSLQSGVPSRFSGSRSGTEFTLTISSLHPEDFATYYCLQHRSYPYTFGQGTNLEIK
notes: VH and VL only
Take B14: the Kd came out at 17.1 nM in experiment [1] and 112 nM in experiment [2].

B15: mAb 145 (antibody, V domains shown)
VH: QVQLVQSGAEVKKPGASVKVSCKASGYTFTNYYIHWVRQAPGQGLDWMGIINPSGGITGYAQKFQGRVTMTRDTSTTTVYMELSSLRSDDTAVYYCARGVRGNYYYYYMDVWGKGTTVTVSS
VL: EIVLTQSPDFQSVTPKEKVTITCRASQSIGSKLHWYQQKPDQSPKLLIKFASQSFSGVPSRFSGSGSGTDFNLTINSLEPEDAATFYCHQSSGLPYTFGQGTKLEIK
notes: VH and VL only
On to B15, for which the dissociation constant (Kd) in experiment [1] came to 61 nM; in experiment [2], 13.1 nM.

The Kd is a measure of binding affinity in units of concentration. A high value points to a looser complex.

Values taken from patent US20230295310A1 (ABCELLERA BIOLOGICS, published 2023).
